B1: VL3VHK20TFT monoclonal antibody (antibody, human IgG4 S228P, kappa, V domains shown)
VH: QVQLVQSGAEVKKPGASVKVSCKASGYTFTKYWINWVRQAPGQGLEWMGIIYPGSSTSNYNEKFKTRVTMTVDTSTSTAYMELSSLRSEDTAVYYCVKNDNWGQGTLVTVSS
VL: DIQMTQSPSSLSASVGDRVTITCRASESVDNYGISFMNWFQQKPGKAPKLLIYAASDLGSGVPSRFSGSGSGTDFTLTISSLQPEDFATYYCHQSKEVPYTFGQGTKLEIKR
notes: Humanized M36/M38; also called hIgG4-36; hIgG-36
B2: mouse α7β1 antibody VLVH (Chimera with human IgG4 Fc) (antibody, V domains shown)
VH: QVQLQQPGAELVKPGASVKLSCKASGYNFTKYWINWVKQRPGQGLEWIGIIYPGSSTSNYNEKFKTKATLTVEISSTTAYMQLSSLTSDDSAVYYCVRGDDWGQGTTLTVSS
VL: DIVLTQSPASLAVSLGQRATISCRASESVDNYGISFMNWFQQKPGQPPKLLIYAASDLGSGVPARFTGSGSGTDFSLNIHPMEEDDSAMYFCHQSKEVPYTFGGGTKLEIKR
notes: also called hIgG4-23; murine antibody (VLVH)
B3: VL3VHK20TFT Fab (Fab, V domains shown)
VH: B1 VH
VL: DIQMTQSPSSLSASVGDRVTITCRASESVDNYGISFMNWFQQKPGKAPKLLIYAASDLGSGVPSRFSGSGSGTDFTLTISSLQPEDFATYYCHQSKEVPYTFGQGTKLEIK
notes: Fab of VL3VHK20TFT; also called VL3VHK20TFT Fab HS; Test Fab
B4: antibody M36 (antibody, V domains shown)
VH: B2 VH
VL: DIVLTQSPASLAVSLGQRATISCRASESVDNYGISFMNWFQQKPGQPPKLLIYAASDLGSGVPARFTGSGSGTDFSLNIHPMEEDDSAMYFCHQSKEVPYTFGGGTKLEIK
notes: Mouse hybridoma monoclonal antibody; also called M36 agonist antibody
B5: antibody M38 (antibody, V domains shown)
VH: B2 VH
VL: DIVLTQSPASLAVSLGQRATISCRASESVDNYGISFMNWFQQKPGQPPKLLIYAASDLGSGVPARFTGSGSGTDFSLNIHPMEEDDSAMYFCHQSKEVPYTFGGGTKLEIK
notes: Mouse hybridoma monoclonal antibody

Tests used:
[1] = molecular target: T1, human integrin alpha-7 (ITGA7) co-transfected with integrin beta-1 precursor (ITGB1) on HEK-293T cells, wild … (human, UniProt P05556 21-798, limits assumed); assay: high-throughput flow cytometry on HEK-293T cells with ITGA7 + ITGB1 against vector alone, 0.5 µg/ml
T1 construct: whole, on cells; also called target protein; wild-type (WT) target protein
Description: (§1) Conditions for binding and screening of monoclonal antibodies and Fabs using high-throughput flow cytometry were optimized using wild-type target protein cloned into a proprietary vector and expressed in HEK-293T cells. The target protein is human integrin alpha-7 (ITGA7; UniProt ID Q13683; SEQ ID NO: 24). The binding of the VL3VHK20TFT monoclonal antibody and the VL3VHK20TFT Fab to HEK-293T cells co-transfected (1:1) with integrin beta-1 precursor (ITGB1) and integrin subunit alpha 7 (ITGA7) or with vector alone (negative control) was evaluated by high-throughput flow cytometry. The antibodies 3C12, 6A11, A1-1a M20, and A1-1a M24 were used as positive controls for ITGA7 binding.
(§2) Each point in FIG. 15 and FIG. 16 represents the mean of four replicates. The optimal screening concentration for each antibody or Fab (outlined in a box) was determined based on the raw signal values and signal-to-background calculations.

[2] = molecular target: cell surface integrin α7β1 (cells and species not stated); assay: cell-based or functional assay
Human Integrin α7β1 [3] = molecular target: T2, Human Integrin α7β1 (human, UniProt Q13683 34-1038; P05556 21-728, limits assumed); assay: comparison of the KD values of Table 8
T2 construct: also called human α7β1 integrin
T2 sequence (Q13683 other isoform, or with tags, fused parts or gaps limits assumed, chain 1 of 2): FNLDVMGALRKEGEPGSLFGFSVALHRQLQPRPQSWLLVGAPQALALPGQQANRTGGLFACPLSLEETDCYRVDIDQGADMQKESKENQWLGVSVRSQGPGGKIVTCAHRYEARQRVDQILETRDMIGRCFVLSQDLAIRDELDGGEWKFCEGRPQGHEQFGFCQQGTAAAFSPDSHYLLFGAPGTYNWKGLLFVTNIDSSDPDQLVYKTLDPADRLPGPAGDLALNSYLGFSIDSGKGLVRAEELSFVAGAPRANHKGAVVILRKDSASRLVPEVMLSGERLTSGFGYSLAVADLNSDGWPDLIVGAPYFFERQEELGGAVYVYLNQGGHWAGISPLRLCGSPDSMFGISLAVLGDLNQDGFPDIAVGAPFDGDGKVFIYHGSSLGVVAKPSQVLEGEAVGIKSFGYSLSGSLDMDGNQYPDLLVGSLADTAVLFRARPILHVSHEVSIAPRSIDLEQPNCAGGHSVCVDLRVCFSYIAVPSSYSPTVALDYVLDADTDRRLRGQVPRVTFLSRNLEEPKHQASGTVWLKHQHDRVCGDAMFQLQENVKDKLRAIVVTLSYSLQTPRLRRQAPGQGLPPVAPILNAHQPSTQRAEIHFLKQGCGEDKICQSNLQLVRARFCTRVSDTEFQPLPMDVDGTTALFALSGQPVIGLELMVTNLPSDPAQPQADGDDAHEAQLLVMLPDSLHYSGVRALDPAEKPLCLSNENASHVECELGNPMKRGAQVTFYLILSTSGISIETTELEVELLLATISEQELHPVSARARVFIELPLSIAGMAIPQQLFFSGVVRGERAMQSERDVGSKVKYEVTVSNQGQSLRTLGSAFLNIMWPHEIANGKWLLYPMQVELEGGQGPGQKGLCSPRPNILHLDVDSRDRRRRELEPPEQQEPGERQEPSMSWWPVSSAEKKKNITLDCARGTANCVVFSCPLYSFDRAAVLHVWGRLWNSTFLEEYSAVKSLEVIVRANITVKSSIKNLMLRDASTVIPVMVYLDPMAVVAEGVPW
T2 sequence (P05556 21-728 limits assumed, chain 2 of 2): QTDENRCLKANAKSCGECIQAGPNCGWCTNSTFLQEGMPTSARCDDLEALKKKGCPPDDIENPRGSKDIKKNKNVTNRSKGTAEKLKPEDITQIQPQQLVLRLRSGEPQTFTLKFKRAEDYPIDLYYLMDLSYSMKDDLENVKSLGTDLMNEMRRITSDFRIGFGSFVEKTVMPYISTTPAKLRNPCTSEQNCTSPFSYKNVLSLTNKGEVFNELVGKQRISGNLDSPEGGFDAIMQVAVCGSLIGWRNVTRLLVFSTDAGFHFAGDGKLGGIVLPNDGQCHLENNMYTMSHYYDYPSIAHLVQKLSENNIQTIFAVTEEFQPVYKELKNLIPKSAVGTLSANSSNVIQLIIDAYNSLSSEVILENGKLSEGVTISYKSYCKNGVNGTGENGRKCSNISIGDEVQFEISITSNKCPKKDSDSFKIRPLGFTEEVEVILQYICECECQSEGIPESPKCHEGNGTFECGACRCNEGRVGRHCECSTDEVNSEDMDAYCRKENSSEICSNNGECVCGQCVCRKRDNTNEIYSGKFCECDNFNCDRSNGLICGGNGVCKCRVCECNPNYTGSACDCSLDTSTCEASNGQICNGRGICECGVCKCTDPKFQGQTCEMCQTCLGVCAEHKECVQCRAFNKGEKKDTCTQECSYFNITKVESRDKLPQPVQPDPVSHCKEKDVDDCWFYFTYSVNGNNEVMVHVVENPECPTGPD

Mouse Integrin α7β1 [4] = molecular target: T3, Mouse Integrin α7β1 (mouse, UniProt Q61738 34-1032; P09055 21-728, limits assumed); assay: comparison of the KD values of Table 8
T3 construct: also called murine α7β1 integrin
T3 sequence (Q61738 other isoform, or with tags, fused parts or gaps limits assumed, chain 1 of 2): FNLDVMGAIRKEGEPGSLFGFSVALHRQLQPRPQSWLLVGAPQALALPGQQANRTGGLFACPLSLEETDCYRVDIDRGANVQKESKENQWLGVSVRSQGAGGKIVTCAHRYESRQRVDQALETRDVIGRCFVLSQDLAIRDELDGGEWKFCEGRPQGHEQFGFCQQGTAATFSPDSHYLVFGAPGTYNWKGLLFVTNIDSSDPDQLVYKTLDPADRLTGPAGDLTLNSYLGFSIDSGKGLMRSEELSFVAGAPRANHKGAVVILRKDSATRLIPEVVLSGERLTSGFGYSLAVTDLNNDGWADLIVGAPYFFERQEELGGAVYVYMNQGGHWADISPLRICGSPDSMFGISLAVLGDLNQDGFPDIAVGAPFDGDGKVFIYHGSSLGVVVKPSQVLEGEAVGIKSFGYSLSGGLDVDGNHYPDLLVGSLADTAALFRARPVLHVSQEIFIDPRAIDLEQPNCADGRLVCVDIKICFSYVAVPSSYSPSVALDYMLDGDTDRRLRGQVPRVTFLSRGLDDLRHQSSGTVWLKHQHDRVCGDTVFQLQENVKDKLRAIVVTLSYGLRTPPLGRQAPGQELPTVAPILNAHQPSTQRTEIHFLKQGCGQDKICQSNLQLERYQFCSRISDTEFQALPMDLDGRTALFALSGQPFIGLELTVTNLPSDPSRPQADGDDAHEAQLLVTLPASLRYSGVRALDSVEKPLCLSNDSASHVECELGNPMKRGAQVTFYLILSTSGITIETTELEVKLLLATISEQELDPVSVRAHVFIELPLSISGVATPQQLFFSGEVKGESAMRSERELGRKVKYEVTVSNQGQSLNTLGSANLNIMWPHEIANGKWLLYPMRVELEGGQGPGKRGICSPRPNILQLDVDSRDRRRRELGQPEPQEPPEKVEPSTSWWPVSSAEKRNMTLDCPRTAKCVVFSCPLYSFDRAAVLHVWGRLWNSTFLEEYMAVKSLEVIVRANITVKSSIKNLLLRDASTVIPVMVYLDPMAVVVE
T3 sequence (P09055 21-728 limits assumed, chain 2 of 2): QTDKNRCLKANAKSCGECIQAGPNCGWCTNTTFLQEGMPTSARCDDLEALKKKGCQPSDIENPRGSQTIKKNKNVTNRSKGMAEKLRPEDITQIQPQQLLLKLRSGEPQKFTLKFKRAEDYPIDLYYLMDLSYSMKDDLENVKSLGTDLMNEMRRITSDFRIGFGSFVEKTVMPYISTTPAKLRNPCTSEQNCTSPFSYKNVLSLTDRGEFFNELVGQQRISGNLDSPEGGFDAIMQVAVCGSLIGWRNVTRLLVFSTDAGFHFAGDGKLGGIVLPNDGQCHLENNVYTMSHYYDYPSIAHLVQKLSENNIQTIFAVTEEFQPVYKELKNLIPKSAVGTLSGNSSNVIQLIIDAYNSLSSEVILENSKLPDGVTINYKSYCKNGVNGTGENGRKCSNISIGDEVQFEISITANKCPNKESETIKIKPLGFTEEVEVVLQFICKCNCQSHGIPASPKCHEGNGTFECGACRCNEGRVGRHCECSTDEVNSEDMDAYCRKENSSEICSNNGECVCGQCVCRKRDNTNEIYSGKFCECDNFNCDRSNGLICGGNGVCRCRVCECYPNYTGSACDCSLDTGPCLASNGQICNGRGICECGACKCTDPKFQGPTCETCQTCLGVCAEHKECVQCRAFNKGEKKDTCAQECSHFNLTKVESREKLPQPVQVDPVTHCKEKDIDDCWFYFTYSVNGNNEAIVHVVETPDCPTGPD

Human Integrin α7β1 [5] = molecular target: T2, Human Integrin α7β1; assay: kinetics with RU read-out, integrin captured at 0.25 µg/mL, antibody as analyte, 1:1 binding model
Mouse Integrin α7β1 [6] = molecular target: T3, Mouse Integrin α7β1; assay: as above
[7] = molecular target: T1, human integrin alpha-7 (ITGA7) …; assay: high-throughput flow cytometry on HEK-293T cells with ITGA7 + ITGB1 against vector alone, 2.0 µg/ml
Description: as §1, §2

[8] = molecular target: T4, ITGA7 mutant R958A on HEK-293T cells (human, UniProt P05556 21-798); assay: high-throughput flow cytometry on HEK-293T cells with the ITGA7 alanine mutant, high stringency, normalized to wild type
T4 construct: whole, on cells; Clone of the alanine-scan library of ITGA7
Method: (§3) In order to map the epitope of VL3VHK20TFT, an alanine-scan library of the target protein (ITGA7; SEQ ID NO: 24) was constructed. Shotgun mutagenesis epitope mapping was performed using the general procedure described in Davidson and Doranz, 2014, Immunology 143, 13-20. Briefly, a mutation library of the target protein was created by high-throughput, site-directed mutagenesis. Each residue was individually mutated to alanine, with alanine codons mutated to serine. The mutant library was arrayed in 384-well microplates and transiently transfected into HEK-293T cells. Following transfection, cells were incubated with the indicated antibodies (VL3VHK20TFT Fab or 6A11 monoclonal antibody (mAh)) at concentrations predetermined using an independent immunofluorescence titration curve on wild type protein. The antibodies were detected using an Alexa Fluor 488-conjugated secondary antibody, and mean cellular fluorescence was determined using Intellicyt® iQue flow cytometry platform. […] This counterscreen strategy facilitates the exclusion of mutants that are locally misfolded or that have an expression defect.
(§4) The binding of VL3VHK20TFT Fab and 6A11 mAh to each mutant clone in an alanine scanning library of ITGA7 mutants was determined, in duplicate, by high-throughput flow cytometry. For each point, background fluorescence was subtracted from the raw data, which were then normalized to antibody (Ab) reactivity with wild-type (WT) target protein. For each mutant clone, the mean binding value was plotted as a function of expression (represented by control reactivity). To identify preliminary primary critical clones (red circles), a threshold (dashed lines) of >70% WT binding to control Ab and <20% WT binding to test Abs was applied.

[9] = molecular target: T5, ITGA7 mutant W979A on HEK-293T cells (human, UniProt P05556 21-798); assay: as above
T5 construct: whole, on cells; Clone of the alanine-scan library of ITGA7
Method: as §3, §4

[10] = molecular target: T6, ITGA7 mutant W978A on HEK-293T cells (human, UniProt P05556 21-798); assay: as above
T6 construct: whole, on cells; Clone of the alanine-scan library of ITGA7
Method: as §3, §4

[11] = molecular target: T7, ITGA7 mutant M976A on HEK-293T cells (human, UniProt P05556 21-798); assay: as above
T7 construct: whole, on cells; Clone of the alanine-scan library of ITGA7
Method: as §3, §4

human α6β1 integrin = human α6β1 integrin (human, UniProt P23229 24-1011; P05556 21-728, limits assumed); assay: dose titration on integrins (FIG. 11B)
Chain of human α6β1 integrin (P23229 other isoform, or with tags, fused parts or gaps limits assumed, chain 1 of 2): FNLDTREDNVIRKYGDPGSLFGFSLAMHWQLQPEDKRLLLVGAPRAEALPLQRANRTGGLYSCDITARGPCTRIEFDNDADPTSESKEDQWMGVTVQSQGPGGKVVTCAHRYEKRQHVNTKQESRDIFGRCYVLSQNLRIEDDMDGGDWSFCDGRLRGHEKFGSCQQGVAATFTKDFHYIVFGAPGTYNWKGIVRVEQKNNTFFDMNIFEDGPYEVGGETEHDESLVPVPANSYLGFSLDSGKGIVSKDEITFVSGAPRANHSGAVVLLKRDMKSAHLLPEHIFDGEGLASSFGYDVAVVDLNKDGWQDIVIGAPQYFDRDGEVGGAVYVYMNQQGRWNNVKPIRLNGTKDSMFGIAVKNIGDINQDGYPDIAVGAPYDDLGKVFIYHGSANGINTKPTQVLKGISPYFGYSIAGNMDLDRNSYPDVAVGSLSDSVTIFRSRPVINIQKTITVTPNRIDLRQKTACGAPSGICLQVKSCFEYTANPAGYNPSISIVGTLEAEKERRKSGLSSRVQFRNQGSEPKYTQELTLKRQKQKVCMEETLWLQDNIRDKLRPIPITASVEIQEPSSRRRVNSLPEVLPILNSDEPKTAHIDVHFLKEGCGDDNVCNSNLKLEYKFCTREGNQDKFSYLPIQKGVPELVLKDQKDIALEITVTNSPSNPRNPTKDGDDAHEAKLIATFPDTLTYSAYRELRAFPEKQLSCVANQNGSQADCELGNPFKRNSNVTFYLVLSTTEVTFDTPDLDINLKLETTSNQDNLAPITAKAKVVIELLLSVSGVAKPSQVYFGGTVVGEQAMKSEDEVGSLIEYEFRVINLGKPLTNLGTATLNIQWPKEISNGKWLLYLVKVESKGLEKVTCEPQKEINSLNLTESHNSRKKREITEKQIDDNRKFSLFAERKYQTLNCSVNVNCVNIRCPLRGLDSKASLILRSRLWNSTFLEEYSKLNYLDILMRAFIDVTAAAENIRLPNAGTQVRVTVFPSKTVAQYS
Chain of human α6β1 integrin (P05556 21-728 limits assumed, chain 2 of 2): as the sequence (P05556 21-728 limits assumed, chain 2 of 2) above

human α5β1 integrin = human α5β1 integrin (human, UniProt P08648 42-995; P05556 21-728, limits assumed); assay: dose titration on integrins (FIG. 11B)

Binder	Kd (Human Integrin α7β1 [5])	koff (Human Integrin α7β1 [5])	kon (Human Integrin α7β1 [5])	Kd (Mouse Integrin α7β1 [6])	koff (Mouse Integrin α7β1 [6])	kon (Mouse Integrin α7β1 [6])	binding result (human α6β1 integrin)	binding result (human α5β1 integrin)	also measured
B1	0.593 nM	0.000153 s⁻¹	258000 M⁻¹ s⁻¹	1.96 nM	0.000469 s⁻¹	239000 M⁻¹ s⁻¹			Signal:Background [1]: 18 ratio signal:background; cell index (integrin α7β1 mediated cell adhesion) of DMD myoblast cells on laminin 211 [2]: ~5 fold; fold lower KD than the chimera antibody VLVH (Human Integrin α7β1 [3]): ~3.33 fold; fold lower KD than the chimera antibody VLVH (Mouse Integrin α7β1 [4]): ~11.1 fold
B2	1.96 nM	0.000652 s⁻¹	333000 M⁻¹ s⁻¹	21.8 nM	0.00213 s⁻¹	97600 M⁻¹ s⁻¹			
B3									Signal:Background [7]: 12 ratio signal:background; Binding Reactivity (% WT) [8]: 27.8 % WT; Binding Reactivity (% WT) [9]: -0.7 % WT; Binding Reactivity (% WT) [10]: -0.3 % WT; Binding Reactivity (% WT) [11]: 29.5 % WT
B4							no binding	no binding	
B5							no binding	no binding	

Reference: US20210147526A1 (PLIANT THERAPEUTICS, published 2021)
